Source: patent US9260507B2, “Peptide promoting cell adhesion and migration” (Symatese, priority 2009, dated 2016)

What was measured:
[1] = system: normal human keratinocytes; assay: NHK wound closure in a confluent keratinocyte layer (time-lapse videomicroscopy); type: cell-based; settings: LG4/5 protein 10 μg/ml, peptide 20 μg/ml
Method: NHKs were seeded in 24-well plates and grown until confluence. The medium was removed and a wound was made in the cell layer using a pipette tip. After rinsing with PBS, the areas were incubated with KBM-2 culture medium at 37° C. in the absence or presence of LG4/5 protein (10 μg/ml) or the peptide KKLRIKSKEK (SEQ ID NO: 1) (20 μg/ml). The behaviour of cells around the wound was then immediately followed by time-lapse videomicroscopy with an image recorded every hour for 48 hours in a moist chamber containing 5% CO2. (A) Images recorded at the beginning of the experiment, at 24 h and 48 h show the total area of the wound covered by cells during the experiment and under each condition (the black lines represent the edges of the wound at the start of recording). Bar, […]. (B) The wounded areas (without cells) were measured at the start, at 24 h (grey bars) and 48 h (black bars) using the Adobe Photoshop CS3 Extended program (version 10.0) in the different conditions. The rate of closure of each wound was expressed as a percentage of the initial wound. […]
Videomicroscopy experiments were performed with a Zeiss Axiovert 100M microscope fitted with a CCD camera (1 image every 10 minutes or every hour). In the experiments of FIG. 11, we analysed the movements of 100 cells using Metaview software (Roper Scientific, Princeton Instruments, Evry, France).

HT1080 cells = assay: Inhibition of cell adhesion by competition (HT1080 cells on LG4/5 and LN332 substrates); type: cell-based, Human; settings: competitor in solution: peptide 20 μg/ml, LG4/5 protein 10 μg/ml, anti-LG4/5 antibody 10 μg/ml applied to substrate
Method: The LG4/5 (white bars) and LN332 (grey bars) proteins (1 μg/well) were adsorbed in 96-well plates. (A) Effect of the polyclonal anti-LG4/5 antibody on cell adhesion to the LG4/5 and LN332 protein. After saturating the wells, a solution of anti-LG4/5 antibody (10 μg/ml) was applied for one hour before performing the adhesion test with HT1080 cells (6·10^4 cells/well). (B, C) Effect of the LG4/5 protein and the peptide KKLRIKSKEK (SEQ ID NO: 1) in solution on syndecan-1 dependent adhesion to the LG4/5 fragment. The HT1080 cells were detached from the dishes and put into the wells (6·10^4 cells/well) as they were or in the presence of the LG4/5 protein (10 μg/ml) or the peptide KKLRIKSKEK (SEQ ID NO: 1) (20 μg/ml) as indicated on the graph. (A, B, C) The plates were incubated at 37° C. for 1 hour. After washing, the adherent cells were fixed and cell adhesion was measured as described in the methodology section. Cell adhesion in the presence of antibodies or competitor proteins was shown as a percentage of the cell adhesion obtained on the same substrate without competitor.
96-well plates were coated with the amounts indicated of peptide KKLRIKSKEK (SEQ ID NO: 1) or laminin 332 by adsorption at +4° C. for 16 to 18 hours. As before, the wells were saturated with a solution of 1% PBS-BSA for one hour. […]

[2] = system: normal human keratinocytes; assay: Cell viability test (XTT); settings: 100 to 1 μg/ml, medium renewed every two days (repeated twice)
Method: NHKs were seeded in 96-well plates at 10^4 cells per well. After 24 hours, the culture media were removed and replaced with KBM-2 medium containing the concentrations of peptide [sequence] (SEQ ID NO: 1) (upper curve) or LG4/5 protein (lower curve) shown. After 48 h of contact at 37° C. the media were removed and this step was repeated twice. After 48 h of contact at 37° C. the media were replaced by XTT reagent. The plates were then placed in an incubator at 37° C. and the absorption was read after 6 hours. Controls with neither peptide nor protein were made on the same plate.
The effect of the peptide on the cell viability of the normal human keratinocytes was analysed using a colorimetric assay (XTT Cell Proliferation Kit, Roche Diagnostics, Meylan, France). A control with the LG4/5 protein was carried out in parallel. The chemical reaction of the test is based on the production of NADPH in living cells reducing yellow tetrazolium XTT salts to orange formazan salts. Absorption at 490 nm is measured using an ELISA plate reader. […] In this case, cell viability was calculated from the formula: % viability=(Abs. cells with peptide/Abs. control cells)×100.

normal human fibroblasts = assay: Cell adhesion test (crystal violet colorimetric), normal human fibroblasts; type: cell-based; settings: 5 μg peptide or 1 μg LG4/5 protein immobilised, FIG. 14B
Method: (A) Showing the binding of syndecan-1 to the peptide KKLRIKSKEK (SEQ ID NO: 1). A lysate of normal human fibroblasts and a lysate of normal human keratinocytes were prepared as described in the Materials and Methods section and 2 mg of each lysate were incubated with neutravidin beads not coated or coated with the biotinylated peptide KKLRIKSKEK (SEQ ID NO: 1). A positive control was performed with the keratinocyte lysate to compare the size and quantity of syndecan-1 in the 2 cell types. After washing, the material bound to the beads was digested with a mixture of heparitinase I and chondroitinase ABC to release the protein part of the syndecan-1 from the glycosaminoglycans. The samples were then analysed by SDS PAGE electrophoresis in an 8% acrylamide gel under non-reducing conditions and by immunoblotting with polyclonal anti-syndecan antibody H174. The position of molecular weight markers is shown on the left. (B, C) Cell adhesion of normal human fibroblasts to the peptide KKLRIKSKEK (SEQ ID NO: 1) and to the LG4/5 protein. In one case (B), 5 μg of peptide KKLRIKSKEK (SEQ ID NO: 1) and 1 μg of protein LG4/5 were immobilised on a 96-well plate and in the other (C), the peptide KKLRIKSKEK (SEQ ID NO: 1) was immobilised at the concentrations indicated in the abscissa. […] After washing, the adherent cells were fixed and cell adhesion was measured as described in the methodology section. […]

B1: LG4/5 protein: purified recombinant LG4/5 domain of the alpha3 chain of pre-LN332 (laminin 332) (protein)
chain: DTPVASPRSVKVWQDACSPLPKTQANHGALQFGDIPTSHLLFKLPQELLKPRSQFAVDMQTTSSRGLVFHTGTKNSFMALYLSKGRLVFALGTDGKKLRIKSKEKCNDGKWHTVVFGHDGEKGRLVVDGLRAREGSLPGNSTISIRAPVYLGSPPSGKPKSLPTNSFVGCLKNFQLDSKPLYTPSSSFGVSSCLGGPLEKGIYFSEEGGHVVLAHSVLLGPEFKLVFSIRPRSLTGILIHIGSQPGKHLCVYLEAGKVTASMDSGAGGTSTSVTPKQSLCDGQWHSVAVTIKQHILHLELDTDSSYTAGQIPFPPASTQEPLHLGGAPANLTTLRIPVWKSFFGCLRNIHVNHIPVPVTEALEVQGPVSLNGCPDQ
- Area of the wound covered by cells (wound closure) ([1]; 24 h): 65%
- Area of the wound covered by cells (wound closure) ([1]; 48 h): 91%
- Effect on HT1080 cell adhesion to the immobilised LG4/5 fragment (HT1080 cells; LG4/5 substrate 1 μg/well): blocked adhesion to the immobilised LG4/5 fragment
- Effect on HT1080 cell adhesion to LN332 (HT1080 cells; LN332 substrate 1 μg/well): without affecting adhesion to LN332
- Cytotoxic effect on epidermal keratinocytes (percentage of viable cells vs controls) [2]: neither peptide […] (SEQ ID NO: 1) nor protein LG4/5 has any long-term cytotoxic effect
- Adhesion of human dermal fibroblasts to the immobilised substrate (normal human fibroblasts): adhere
